In the supplement of paper PMC7877785:
± gives the uncertainty stated by the source.

Test: self-splicing fitness, log relative to wild type (ln ratio); higher = more splicing; Tetrahymena group I intron in knt gene, E. coli kanamycin selection, DiMSum; sequences stand for … in CUCUCU…GGAGGGAAAAGUUAUCAGGCAUGCACCUGGUAGCUAGUCUUUAAACCAAUAGAUUGCAUCGGUUUAAAAGGCAAGACCGUCAAAUUGCGGGAAAGGGGUCAACAGCCGUUCAGUACCAAGUCUCAGGGGAAACUUUGAGAUGGCCUUGCAAAGGGUAUGGUAAUAAGCUGACGGACAUGGUCCUAACCACGCAGCCAAGUCCUAAGUCAACAGAUCUUCUGUUGAUAUGGAUGCAGUUCACAGACUAAAUGUCGGUCGGGGAAGAUGUAUUCUUCUCAUAAGAUAUAGUCGGACCUCUCCUUAAUGGGAGCUAGCGGAUGAAGUGAUGCAACACUGGAGCCGCUGGGAACUAAUUUGUAUGCGAAAGUAUAUUGAUUAGUUUUGGAGUACUCGUGGUCG
How it was run: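 Fitness was computed with DiMSum as the error-weighted combination of replicate fold changes, kanamycin versus none, each normalised to wild type. The library randomised all eight intron nucleotides of the P1ex region, with the intron placed in the knt kanamycin-resistance gene on pET-22b(+) in E. coli BL21(DE3). Six replicate transformations were grown overnight at 37°C or 30°C on LB agar with or without 25 μg/mL kanamycin, plus 100 μg/mL carbenicillin, 50 μM IPTG and 0.2% rhamnose. Pooled colonies were amplicon-sequenced on an Illumina HiSeq 2500.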

Sequence	self-splicing fitness (ln) (30 °C)	self-splicing fitness (ln) (37 °C)
GGUAAGCAAUAUUACGGGCG	-0.129 ± 0.097	-0.279 ± 0.13
GGUAAGCAAUAUUACGUACU	-1.82 ± 0.32	–
GGUAAGCAAUAUUACGUCCU	-1.17 ± 0.2	-0.999 ± 0.23
GGUCAGCAAUAUUACGAAAC	-0.257 ± 0.22	-0.396 ± 0.22
GGUCAGCAAUAUUACGAUUG	-0.673 ± 0.073	0.0247 ± 0.097
GGUCAGCAAUAUUACGCGAA	-0.889 ± 0.069	0.00884 ± 0.088
GGUCAGCAAUAUUACGCGUC	-1.46 ± 0.17	0.149 ± 0.19
GGUCAGCAAUAUUACGCGUG	-0.989 ± 0.077	-0.272 ± 0.083
GGUCAGCAAUAUUACGGAAC	-1.04 ± 0.1	-0.383 ± 0.14
GGUCAGCAAUAUUACGGACU	-1.49 ± 0.44	–
GGUCAGCAAUAUUACGGAUU	-0.77 ± 0.079	-0.499 ± 0.1
GGUCAGCAAUAUUACGGCCG	-1.83 ± 0.33	-1.64 ± 0.33
GGUCAGCAAUAUUACGGCGA	0.307 ± 0.14	0.838 ± 0.14
GGUCAGCAAUAUUACGGGUU	-1.25 ± 0.083	-0.194 ± 0.089
GGUCAGCAAUAUUACGGUCA	-0.669 ± 0.13	0.518 ± 0.13
GGUCAGCAAUAUUACGGUGU	-1.44 ± 0.15	0.00529 ± 0.14
GGUCAGCAAUAUUACGUCAA	-0.511 ± 0.071	0.0808 ± 0.082
GGUCAGCAAUAUUACGUGAG	0.0154 ± 0.061	0.241 ± 0.085
GGUCAGCAAUAUUACGUGGG	-2.15 ± 0.089	-2.38 ± 0.15
GGUCAGCAAUAUUACGUUCU	-0.13 ± 0.1	0.22 ± 0.11
GGUGAGCAAUAUUACGACAC	-0.5 ± 0.18	0.114 ± 0.22
GGUGAGCAAUAUUACGAGAG	-4.03 ± 0.27	-2.38 ± 0.18
GGUGAGCAAUAUUACGAGCG	-0.194 ± 0.11	0.303 ± 0.14
GGUGAGCAAUAUUACGAUGA	-3.32 ± 0.29	-2.29 ± 0.21
GGUGAGCAAUAUUACGAUGU	-2.19 ± 0.15	-1.69 ± 0.23
GGUGAGCAAUAUUACGAUUG	-3.77 ± 0.39	-1.79 ± 0.4

Sequence	self-splicing fitness (ln) (30 °C)	self-splicing fitness (ln) (37 °C)
GGUGAGCAAUAUUACGCAGG	-3.7 ± 0.34	-2.07 ± 0.41
GGUGAGCAAUAUUACGCGAG	–	-1.97 ± 0.18
GGUGAGCAAUAUUACGCGCG	-0.933 ± 0.087	-0.502 ± 0.12
GGUGAGCAAUAUUACGCGGA	-2.35 ± 0.19	-1.57 ± 0.15
GGUGAGCAAUAUUACGCUAU	-1.77 ± 0.32	-2.94 ± 0.4
GGUGAGCAAUAUUACGGAGG	-1.6 ± 0.27	–
GGUGAGCAAUAUUACGGAUC	-0.748 ± 0.076	0.263 ± 0.11
GGUGAGCAAUAUUACGGAUG	-3.73 ± 0.22	-2.62 ± 0.22
GGUGAGCAAUAUUACGGCGU	-1.29 ± 0.14	-0.494 ± 0.17
GGUGAGCAAUAUUACGGGAC	-3.63 ± 0.29	-1.85 ± 0.19
GGUGAGCAAUAUUACGGGGA	–	-2.42 ± 0.28
GGUGAGCAAUAUUACGGUCG	-1.29 ± 0.077	-0.612 ± 0.1
GGUGAGCAAUAUUACGGUUU	-2.12 ± 0.13	-1.25 ± 0.18
GGUGAGCAAUAUUACGUGGU	-3.51 ± 0.47	-2.36 ± 0.24
GGUGAGCAAUAUUACGUUGU	-4.18 ± 0.31	-2.04 ± 0.25
GGUUAGCAAUAUUACGAAAA	-2.05 ± 0.41	0.949 ± 0.28
GGUUAGCAAUAUUACGACAG	-1.69 ± 0.2	-0.85 ± 0.23
GGUUAGCAAUAUUACGACGG	-2.32 ± 0.17	-1.33 ± 0.22
GGUUAGCAAUAUUACGACUU	-0.187 ± 0.12	1.17 ± 0.16
GGUUAGCAAUAUUACGAGAU	–	-1.66 ± 0.33
GGUUAGCAAUAUUACGAUGC	-0.237 ± 0.13	-0.251 ± 0.16
GGUUAGCAAUAUUACGCCUU	-1.48 ± 0.11	-0.406 ± 0.14
GGUUAGCAAUAUUACGCGGC	-2.62 ± 0.29	–
GGUUAGCAAUAUUACGCGUA	-0.642 ± 0.091	-0.174 ± 0.083
GGUUAGCAAUAUUACGCUGU	-2.1 ± 0.15	-0.41 ± 0.14
GGUUAGCAAUAUUACGGCAU	-0.0374 ± 0.082	-0.0754 ± 0.096

Sequence	self-splicing fitness (ln) (30 °C)	self-splicing fitness (ln) (37 °C)
GGUUAGCAAUAUUACGGGGU	-3.61 ± 0.4	-0.0656 ± 0.17
GGUUAGCAAUAUUACGGUAA	-1.02 ± 0.15	-0.716 ± 0.14
GGUUAGCAAUAUUACGGUCC	-1.77 ± 0.49	–
GGUUAGCAAUAUUACGUACU	-1.22 ± 0.24	-1.27 ± 0.32
GGUUAGCAAUAUUACGUCGC	-1.25 ± 0.24	-0.982 ± 0.26
GGUUAGCAAUAUUACGUCUA	-0.569 ± 0.12	-0.565 ± 0.093
GUAAAGCAAUAUUACGACCC	-1.28 ± 0.32	-0.886 ± 0.41
GUAAAGCAAUAUUACGAGAC	-2.46 ± 0.22	-1.08 ± 0.29
GUAAAGCAAUAUUACGAGAU	-2.12 ± 0.12	-1.99 ± 0.15
GUAAAGCAAUAUUACGAGCU	-1.4 ± 0.13	-0.306 ± 0.18
GUAAAGCAAUAUUACGCAGC	-2.42 ± 0.22	-1.25 ± 0.2
GUAAAGCAAUAUUACGCAUG	-1.15 ± 0.077	-0.761 ± 0.1
GUAAAGCAAUAUUACGCCCA	0.335 ± 0.062	0.419 ± 0.085
GUAAAGCAAUAUUACGCCCC	-0.801 ± 0.089	-0.0225 ± 0.12
GUAAAGCAAUAUUACGCCCG	0.162 ± 0.18	-0.247 ± 0.19
GUAAAGCAAUAUUACGCGAA	-0.868 ± 0.08	-1.25 ± 0.1
GUAAAGCAAUAUUACGCGGG	-1.74 ± 0.12	-2.08 ± 0.19
GUAAAGCAAUAUUACGCUGC	-2.97 ± 0.24	-1.97 ± 0.28
GUAAAGCAAUAUUACGGAUC	-0.198 ± 0.12	0.205 ± 0.15
GUAAAGCAAUAUUACGGCGG	-1.39 ± 0.1	-1.76 ± 0.16
GUAAAGCAAUAUUACGGGAA	-2.36 ± 0.11	-0.287 ± 0.12
GUAAAGCAAUAUUACGGGGA	-2.91 ± 0.19	-2.4 ± 0.21
GUAAAGCAAUAUUACGGGGC	-3.07 ± 0.23	-2.29 ± 0.15
GUAAAGCAAUAUUACGGUCU	-0.245 ± 0.071	0.0323 ± 0.092
GUAAAGCAAUAUUACGGUGA	-0.896 ± 0.084	-0.575 ± 0.1
GUAAAGCAAUAUUACGGUUU	-0.83 ± 0.055	0.0852 ± 0.077
